Experimental data as given in US20200129630A1, “METHODS FOR TREATING CANCER” (BicycleRD Limited, priority 2018, published 2020).
Numbered stars: 1 amine (or outer) side, 2 acyl side, 3 side chain; on linkers, the order of the positions; unused ones are H or OH. Bridge positions count the residues as written; N and C are the ends. Square brackets hold non-standard residues; d marks the D form. Peptide text beside a SMILES is read from it. * marks the point of attachment. X1 = COc1cc2cc(c1Cl)N(C)C(=O)C[C@H](OC(=O)[C@H](C)N(C)C(=O)CCSSC(C)CCC(=O)*)[C@]1(C)O[C@H]1[C@H](C)[C@@H]1C[C@@](O)(NC(=O)O1)[C@H](OC)/C=C/C=C(\C)C2; 1Nal = N[C@@H](Cc1cccc2ccccc12)C(=O)O; TBMB = c1c(C[*:1])cc(C[*:3])cc1C[*:2]; Tle = CC(C)(C)[C@H](N)C(=O)O; βAla = NCCC(=O)O; Sar = CNCC(=O)O

Legend:
[1] = tested on: NCI-H292; test: In vitro cytotoxicity (CellTiter-Glo) NCI-H292; format: cell-based; conditions: NCI-H292, NSCLC
Source text: Table 1 and Table 2 Notes: in general regression and stable disease correlated with the in vitro cytotoxicity and MT1-MMP expression. Female BALB/c mice n=3/group animals dosed twice per week except EBC-1 three per week. Tumor growth inhibition (TGI) (%)=[1−(Ti−T0)/(Vi−V0)]×100; Ti is the average tumor volume of a treatment group on a given day, TO is the average tumor volume of the treatment group on the day of treatment start, Vi is the average tumor volume of vehicle control group on the same day with Ti, and V0 is the average tumor volume of vehicle group on the day of treatment start. A one-way ANOVA was performed to compare tumor volume among groups, and when a significant F-statistics (a ratio of treatment variance to the error variance) was obtained, comparisons between groups were carried out with Games-Howell test. All data were analyzed using GraphPad Prism.* p<0.05, ** p<0.01, *** p<0.001. In vitro cytotoxicity was measured by CellTiter-Glo®, MT1-MMP membrane H score from immunohistochemistry staining, NM not measured. Tumor size on Day 1 of dosing.

[2] = CNS behavioral model (Irwin study); format: in vivo; conditions: single dose 0.2, 0.5 or 1 mg/kg, rats
Method: As part of the Good Laboratory Practice (GLP)-compliant toxicity studies, a core battery of safety pharmacology tests were performed. […] Electrocardiogram (ECG) and respiratory plethysmography measurements were taken in monkeys dosed at 0.2, 0.5, 1 and 1.5 mg/kg (2.4, 6, 12 and 18 mg/m^2 respectively) twice weekly on Day 4, Day 22 (following 2nd and 7th dose) and in the recovery period (for animals dosed with 0, 6 and 12 mg/m^2 twice weekly). Blood pressure (BP) measurements were also evaluated in the same monkeys on Day 1 and Day 25 and in the recovery period. […] It is therefore concluded that BT1718 has no cardiac, respiratory or behavioral liability at the doses and schedule tested in the GLP toxicity studies.

[3] = Stability in whole blood in vitro, dog; format: in vitro ADME; conditions: 37° C.
Method: The stability of BT1718 was assessed in plasma and whole blood from humans, monkey, dog, mouse and rat. […] The mechanism for the difference in stability of the BT1718 peptide in whole blood between the different species is unknown.

[4] = Monkey GLP study toxicokinetics; format: in vivo; conditions: plasma, Day 1 male; for clearance / half-life / Cmax / Vd: Cynomolgus; for Cmax: read-out: C0/Cmax; for Vd: read-out: Vdss
Source text: (§1) In a repeat dose experiment with BT1718 no significant gender-related differences in the TK parameters for the rat or monkey were noted. Exposure in both the rat and monkey increased approximately linearly with dose and was maintained for 28 days on repeat dosing. […] Plasma clearance and volume of distribution were similar across BT1718 dose and consistent with the PK studies.

[5] = Repeat dose toxicokinetics, rat and monkey; format: in vivo; conditions: both sexes, plasma, intravenous, rat or monkey, irrespective of dose, read-out: Plasma t1/2
Source text: as §1

[6] = Non-GLP toxicity studies, rat; format: in vivo
Method: In a GLP-compliant study in Cynomolgus monkeys, the highest non-severely toxic dose (HNSTD) of BT1718 was established to be 18 mg/m^2 administered twice weekly, equivalent to a human dose of 0.48 mg/kg. In a GLP-compliant study in the rat, the MTD was not reached with the highest administered dose 6 mg/m^2 twice weekly. At this dose level, there was kidney toxicity (with no effect on clinical condition) and also testicular toxicity. After 28 days off-dose, there was evidence of partial recovery of kidney-related findings, but no recovery of testicular effects at this dose level. […] Therefore, the MTD for rat for twice weekly dosing was considered to be between 1 and 1.5 mg/kg.

[7] = BALB/c mouse PK study; conditions: female; for Cmax: BALB/c mouse, 15 mg/m^2 (5 mg/kg) IV
[8] = 2.4 mg/m2, Monkeys GLP, 2.4 mg/m^2 IV
[9] = 6 mg/m2, Monkeys GLP, 6 mg/m^2 IV
[10] = 12 mg/m2, Monkeys GLP, 12 mg/m^2 IV
[11] = 18 mg/m2, Monkeys GLP, 18 mg/m^2 IV
[12] = BALB/c, mouse, plasma, iv, 15 mg/m2

Compound: COc1cc2cc(c1Cl)N(C)C(=O)C[C@H](OC(=O)[C@H](C)N(C)C(=O)CCSSC(C)CCC(=O)NCCC(=O)N(C)CC(=O)N(C)CC(=O)N(C)CC(=O)N(C)CC(=O)N(C)CC(=O)N(C)CC(=O)N(C)CC(=O)N(C)CC(=O)N(C)CC(=O)N(C)CC(=O)N[C@@H](C)C(=O)N[C@H]1CSCc3cc4cc(c3)CSC[C@H](NC(=O)[C@@H](C)NC(=O)[C@H](Cc3cccc5ccccc35)NC(=O)[C@H](CCC(=O)O)NC(=O)[C@H](CC(N)=O)NC(=O)[C@@H](C)NC1=O)C(=O)N[C@@H](CCC(=O)O)C(=O)N[C@@H](CC(=O)O)C(=O)N[C@@H](Cc1ccccc1)C(=O)N[C@@H](Cc1ccc(O)cc1)C(=O)N[C@@H](CC(=O)O)C(=O)N[C@@H](C(C)(C)C)C(=O)N[C@H](C(N)=O)CSC4)[C@]1(C)O[C@H]1[C@H](C)[C@@H]1C[C@@](O)(NC(=O)O1)[C@H](OC)/C=C/C=C(\C)C2 (stereo partly shown) [BT1718] ({X1-βAla}-[Sar][Sar][Sar][Sar][Sar][Sar][Sar][Sar][Sar][Sar]AC[dA]NE[1Nal][dA]CEDFYD[Tle]C-NH2; linker 12-18-25 via TBMB (inferred))
- IC50 [1]: 11.6 nM
- CNS behavioral effects (Irwin study) [2]: No effects
- half-life [3]: > 1440 min
- clearance [4, 8]: 13.4 ± 4.7 mL/min/kg
- half-life [4, 8]: 12.6 min
- Cmax [4, 8]: 200 ± 40 nM
- Vd [4, 8]: 0.24 ± 0.05 L/kg
- clearance [4, 9]: 8.8 ± 0.8 mL/min/kg
- half-life [4, 9]: 13.8 min
- Cmax [4, 9]: 670 ± 40 nM
- Vd [4, 9]: 0.17 ± 0.02 L/kg
- clearance [4, 10]: 8.2 ± 0.6 mL/min/kg
- half-life [4, 10]: 21.6 min
- Cmax [4, 10]: 1210 ± 90 nM
- Vd [4, 10]: 0.21 ± 0.01 L/kg
- clearance [4, 11]: 6.7 mL/min/kg
- half-life [4, 11]: 22.8 min
- Cmax [4, 11]: 2530 nM
- Vd [4, 11]: 0.16 L/kg
- AUC [4, 8]: 0.08 ± 0.02 µM·h
- AUC [4, 9]: 0.28 ± 0.03 µM·h
- AUC [4, 10]: 0.59 ± 0.14 µM·h
- AUC [4, 11]: 1.09 µM·h
- half-life [5]: 12 to 33.6 min
- tolerability ([6]; non-GLP rat, 9 mg/m^2 twice weekly): not well tolerated
- GI findings ([6]; rat 5.03 mg/kg (30.2 mg/m^2) twice): Single cell necrosis of the ileum
- bladder findings ([6]; rat, single administration of 40 mg/m^2): Bladder epithelial degeneration
- peripheral haematology ([6]; rats 1.5 mg/kg, 9 mg/m^2 twice weekly): significant decreases in WBCs
- hepatic findings ([6]; rats 3.35 mg/kg, 20.1 mg/m^2 twice weekly): Elevated liver enzymes
- renal findings ([6]; rats >1 mg/kg, 6 mg/m^2 twice weekly): Moderate renal tubule degeneration and epithelial mitosis
- AUC ([7]; BALB/c, mouse, plasma, intravenous, 5 mg/kg): ~2.5 µM·h
- Cmax ([7]; BALB/c, mouse, plasma, iv, 5 mg/kg, C0/Cmax): 8000 nM
- AUC [7, 12]: 2.3 ± 0.2 µM·h
- Vd [7, 12]: 0.23 ± 0.09 L/kg
- clearance [7, 12]: 7.5 ± 0.6 mL/min/kg
- half-life [7, 12]: 33.6 ± 10.8 min
- Cmax ([7]; read-out: C0/Cmax): 7200 ± 410 nM
